Reference: patent publication US20180099057

T1: oligopeptide sequence GNWPWDWGWDWPWNWG (SEQ ID NO:8) tethering TCPP to the nanoparticle
T1 sequence: GNWPWDWGWDWPWNWG

T2: oligopeptide sequence GNwPwDwGwDwPwNwG (SEQ ID NO:9) tethering TCPP to the nanoparticle
T2 sequence: GNWPWDWGWDWPWNWG

T3: oligopeptide sequence GRARQRLRARQG (SEQ ID NO:7) tethering TCPP to the nanoparticle
T3 sequence: GRARQRLRARQG

T4: oligopeptide sequence GRRRRRRRG (SEQ ID NO:5) tethering TCPP to the nanoparticle
T4 sequence: GRRRRRRRG

T5: Cyanine 5.5 linked GR7G peptide (SEQ ID NO:5) on nanoplatform 1 / nanoplatform 2
T5 sequence: GRRRRRRRG

B1: arginase II (enzyme, UniProt P78540 23-354, looked up, species assumed)
Arginase-2, mitochondrial: VHSVAVIGAPFSQGQKRKGVEHGPAAIREAGLMKRLSSLGCHLKDFGDLSFTPVPKDDLYNNLIVNPRSVGLANQELAEVVSRAVSDGYSCVTLGGDHSLAIGTISGHARHCPDLCVVWVDAHADINTPLTTSSGNLHGQPVSFLLRELQDKVPQLPGFSWIKPCISSASIVYIGLRDVDPPEHFILKNYDIQYFSMRDIDRLGIQKVMERTFDLLIGKRQRPIHLSFDIDAFDPTLAPATGTPVVGGLTYREGMYIAEEIHNTGLLSALDLVEVNPQLATSEEEAKTTANLAVDVIASSFGQTREGGHIVYDQLPTPSSPDESENQARVRI

What was measured:
[1] = tested on: T1, oligopeptide sequence GNWPWDWGWDWPWNWG (SEQ ID NO:8) tethering TCPP to the nanoparticle
[2] = tested on: T2, oligopeptide sequence GNwPwDwGwDwPwNwG (SEQ ID NO:9) tethering TCPP to the nanoparticle
[3] = tested on: T3, oligopeptide sequence GRARQRLRARQG (SEQ ID NO:7) tethering TCPP to the nanoparticle
[4] = tested on: T4, oligopeptide sequence GRRRRRRRG (SEQ ID NO:5) tethering TCPP to the nanoparticle
[5] = tested on: T5, Cyanine 5.5 linked GR7G peptide (SEQ ID NO:5) on nanoplatform 1 / nanoplatform 2

Molecule	calibration of nanoplatform fluorescence after 60 min. of incubation in HEPES buffer [1]	calibration of nanoplatform fluorescence after 60 min. of incubation in HEPES buffer [2]	limit of detection, nanoplatform fluorescence after 60 min. of incubation in HEPES buffer [1]	limit of detection, TCPP fluorescence of the nanoplatform after 60 min. of incubation in HEPES buffer [3]	limit of detection, TCPP fluorescence of the nanoplatform after 60 min. of incubation in PBS [4]	cyanine 7.0 fluorescence (FRET) of nanoplatform 1 after 1 h of incubation at 37° C. [5]	limit of detection from the calibration curve of FIG. 13 (nanoplatform 2, printed as nanoplatform 1) [5]	limit of detection of nanoplatform 1, quotient of integrated cyanine 5.5 and cyanine 7.0 fluorescence bands [5]	limit of detection of nanoplatform 2, fluorescence increase over the whole range [5]
tryptophan 2,3-dioxygenase	the concentration of TDO can be determined over the whole range from 10^-7 to 10^-16 M	TDO does not react with the substrate GNwPwDwGwDwPwNwG (SEQ ID NO:9), because it is specific for L-tryptophan							
indoleamine 2,3-dioxygenase 1		the concentration of IDO1 can be determined over the range from 10^-7 to 10^-14 M	the LOD for IDO1 is 10^-15 M						
B1				The limit of detection is estimated to 2×10^-16M arginase II	The limit of detection is 10^-15 M arginase II	After incubation with arginase II, an increase in cyanine 7.0 fluorescence was observed	the LOD (limit of detection) of nanoplatform 1 is 10^-10 M	the LOD (limit of detection) of nanoplatform 1 is down to the picomolar level	its LOD is only at 10^-7 M of arginase II concentration
